Laboratory results taken from patent publication US20240115701A1.

Key:
[1] = molecular target: MabSelect Sure Protein A ligand (protein A resin, GE Healthcare); test: batch resin-slurry partitioning on MabSelect Sure protein A resin; Elute: 20 mM NaAcetate, pH 3.5; reference mAb1
[2] = molecular target: MabSelect Sure Protein A ligand (protein A resin, GE Healthcare); test: batch resin-slurry partitioning on MabSelect Sure protein A resin; Equil/wash: 10 mM NaPhosphate, pH 6.5
[3] = molecular target: MabSelect Sure Protein A ligand (protein A resin, GE Healthcare); test: batch resin-slurry partitioning on MabSelect Sure protein A resin; Elute: 20 mM NaAcetate, pH 3.5; reference mAb2
[4] = molecular target: MabSelect Sure Protein A ligand (protein A resin, GE Healthcare); test: batch resin-slurry partitioning on MabSelect Sure protein A resin; Equil/wash: 10 mM NaPhosphate, pH 6.5; reference mAb2
[5] = molecular target: MabSelect Sure Protein A ligand (protein A resin, GE Healthcare); test: batch resin-slurry partitioning on MabSelect Sure protein A resin; Strip: 100 mM acetic acid
[6] = molecular target: MabSelect Sure Protein A ligand (protein A resin, GE Healthcare); test: batch resin-slurry partitioning on MabSelect Sure protein A resin; High salt wash: 10 mM NaPhosphate, pH 6.5, 0.5M NaCl; reference mAb2
[7] = molecular target: MabSelect Sure Protein A ligand (protein A resin, GE Healthcare); test: partitioning on protein A resin under loading conditions; reference mAb3
[8] = molecular target: MabSelect Sure Protein A ligand (protein A resin, GE Healthcare); test: batch resin-slurry partitioning on MabSelect Sure protein A resin; Strip: 100 mM acetic acid; reference mAb1
[9] = molecular target: MabSelect Sure Protein A ligand (protein A resin, GE Healthcare); test: batch resin-slurry partitioning on MabSelect Sure protein A resin; Elute: 20 mM NaAcetate, pH 3.5
[10] = molecular target: MabSelect Sure Protein A ligand (protein A resin, GE Healthcare); test: batch resin-slurry partitioning on MabSelect Sure protein A resin; High salt wash: 10 mM NaPhosphate, pH 6.5, 0.5M NaCl
[11] = molecular target: MabSelect Sure Protein A ligand (protein A resin, GE Healthcare); test: batch resin-slurry partitioning on MabSelect Sure protein A resin; Equil/wash: 10 mM NaPhosphate, pH 6.5; reference mAb1
[12] = molecular target: MabSelect Sure Protein A ligand (protein A resin, GE Healthcare); test: batch resin-slurry partitioning on MabSelect Sure protein A resin; High salt wash: 10 mM NaPhosphate, pH 6.5, 0.5M NaCl; reference mAb1
[13] = molecular target: MabSelect Sure Protein A ligand (protein A resin, GE Healthcare); test: batch resin-slurry partitioning on MabSelect Sure protein A resin; Strip: 100 mM acetic acid; reference mAb2

| log α (log KP PLBL2 - log KP mAb1) [1] | log KP (partition coefficient, bound/free) [2] | log α (log KP PLBL2 - log KP mAb2) [3] | log α (log KP PLBL2 - log KP mAb2) [4] | log KP (partition coefficient, bound/free) [5] | log α (log KP PLBL2 - log KP mAb2) [6] | log α (log KP PLBL2 - log KP mAb3) [7] | log α (log KP PLBL2 - log KP mAb1) [8] | log KP (partition coefficient, bound/free) [9] | log KP (partition coefficient, bound/free) [10] | log α (log KP PLBL2 - log KP mAb1) [11] | log α (log KP PLBL2 - log KP mAb1) [12] | log α (log KP PLBL2 - log KP mAb2) [13] | Substance |
| --- | --- | --- | --- | --- | --- | --- | --- | --- | --- | --- | --- | --- | --- |
| 0 |  |  |  |  |  |  |  |  |  |  |  |  | phospholipase B-like 2 (PLBL2) |
|  | 0 | -0.3 | -2 | 0 | -2 | -2 | 0 | 0 | 0 | -2 | -2 | 0 | phospholipase B-like 2 (PLBL2) (enzyme) |
